# Reference: patent publication US20090042785A1 (Pieris, published 2009)
# Changes are numbered by the printed parent chain. Names and notes keep the numbering of the source.
# B1: hNGAL mutein F92.1-J08 (designed binder)
# chain: QDSTSDLIPAPPLSKVPLQQNFQDNQFHGKWYVVGLAGNRILRDDQHPMNMYATIYELKEDKSYNVTSVIFPHKKCEYTIATFVPGSQPGEFTLGNIKSYGDKTSYLVRVVSTNYNQYAVVFFKLAEDNAEFFAITIYGRTKELASELKENFIRFSKSLGLPENHIVFPVPIDQCIDGSAWSHPQF
# notes: also called CTLA-4-J08
# B2: hNGAL mutein S109.5-L04 (designed binder)
# chain: B1 chain with Q46R, Y118H, V120T
# B3: hNGAL mutein S94.2-F05 (designed binder)
# chain: B1 chain with V120M, I135V
# B4: hNGAL mutein S106.1-N15 (designed binder)
# chain: B1 chain with V34L, Y118H, V120M
# B5: hNGAL mutein S109.4-A15 (designed binder)
# chain: B1 chain with N50D, Y118H, V120T
# B6: hNGAL mutein S106.3-K20 (designed binder)
# chain: B1 chain with Y118H, K124Q, A126V, E131G
# B7: hNGAL mutein S109.6-J11 (designed binder)
# chain: B1 chain with I80F, Y118H, V120T, I135V
# B8: hNGAL mutein S106.3-O19 (designed binder)
# chain: B1 chain with Y78H, N114D, Y118H, V120M, K124E, A126V, E131G
# B9: hNGAL mutein S107.4-C16 (designed binder)
# chain: B1 chain with Y118H, V120M, K124E, A126V, E131G
# B10: hNGAL mutein S67.2-F03 (designed binder)
# chain: B1 chain with Y118H, V120M, A126V
# B11: hNGAL mutein S109.5-L23 (designed binder)
# chain: B1 chain with N65D, I80T, D102G, Y118H, V120T, E127G
# B12: hNGAL mutein S67.3-C21 (designed binder)
# chain: QDSTSDLIPAPPLSKVPLQQNFQDNQFHGKWYVVGLAGNYIWRNDRYPMQMYATIYELKEDKSYNVTSVIFDTKKCEYPIATFVPGSQPGEFTLGNIKSYRMDTSYLVRVVSTNYNQHAMVFFKQVNHNTEHFAITIYGRTKELASELKENFIRFSKSLGLPENHIVFPVPIDQCIDGSAWSHPQF
# B13: S140.4-O10_A145C (designed binder)
# chain: QDSTSDLIPAPPLSKVPLQQNFQDNQFHGKWYVVGLAGNRILRDDQHPMNMYATIYELKEDKSYNVTSVISSHKKCEYTIATFVPGSQPGEFTLGNIKSYGDKTSYLVRVVSTDYNQYAVVFFKLAEDNAEFFAITIYGRTKELCSELKENFIRFSKSLGLPENHIVFPVPIDQCIDG
# notes: Produced from phNGAL15 without the T7 tag
# B14: S140.4-O10_E143C PEGylated with 12k PEG-maleimide (designed binder)
# chain: B13 chain with E143C, C145A
# modifications: 12k PEG-maleimide on Cys 143
# notes: also called O10_E143C PEGylated monomer
# B15: hNGAL mutein S140.1-F09 (designed binder)
# chain: B13 chain with D114N, C145A
# notes: tagged entry not tied to the name; not shown: N-terminal T7 detection tag from vector phNGAL37; C-terminal Strep-tag II from vector phNGAL37
# B16: S140.4-O10_N116 (designed binder)
# chain: B13 chain with N116C, C145A
# notes: Produced from phNGAL15 without the T7 tag; also called O10_N116C
# B17: S140.4-O10_N21C (designed binder)
# chain: B13 chain with N21C, C145A
# notes: as for B13
# B18: S140.4-O10_A145C PEGylated with 12k PEG-maleimide (designed binder)
# chain: B13 chain
# modifications: 12k PEG-maleimide on Cys 145
# notes: also called O10_A145C PEGylated monomer
# B19: S140.4-O10_V84C (designed binder)
# chain: B13 chain with V84C, C145A
# notes: as for B13
# B20: S140.4-O10_E143C (designed binder)
# chain: B13 chain with E143C, C145A
# notes: as for B13
# B21: S140.4-O10_S146C (designed binder)
# chain: B13 chain with C145A, S146C
# notes: as for B13
# B22: S140.4-O10_E60C (designed binder)
# chain: B13 chain with E60C, C145A
# notes: as for B13
# B23: S140.4-O10_S14C (designed binder)
# chain: B13 chain with S14C, C145A
# notes: as for B13
# B24: hNGAL mutein S140.2-P24 (designed binder)
# chain: B13 chain with N50D, N116S, C145A
# notes: as for B15
# B25: S140.4-O10_S146C PEGylated with 12k PEG-maleimide (designed binder)
# chain: B13 chain with C145A, S146C
# modifications: 12k PEG-maleimide on Cys 146
# notes: also called O10_S146C PEGylated monomer
# B26: S140.4-O10_V84C PEGylated with 12k PEG-maleimide (designed binder)
# chain: B13 chain with V84C, C145A
# modifications: 12k PEG-maleimide on Cys 84
# notes: also called O10_V84C PEGylated monomer
# B27: S140.4-O10_T141C (designed binder)
# chain: B13 chain with T141C, C145A
# notes: as for B13
# B28: S140.4-O10_Q88C (designed binder)
# chain: B13 chain with Q88C, C145A
# notes: as for B13
# B29: S140.4-O10_S158C (designed binder)
# chain: B13 chain with C145A, S158C
# notes: as for B13
# B30: S140.4-O10_T141C PEGylated with 12k PEG-maleimide (designed binder)
# chain: B13 chain with T141C, C145A
# modifications: 12k PEG-maleimide on Cys 141
# notes: also called O10_T141C PEGylated monomer
# B31: S140.4-O10 with a free cystein residue at position 87 (designed binder)
# chain: QDSTSDLIPAPPLSKVPLQQNFQDNQFHGKWYVVGLAGNRILRDDQHPMNMYATIYELKEDKSYNVTSVISSHKKCEYTIATFVPGCQPGEFTLGNIKSYGDKTSYLVRVVSTDYNQYAVVFFKLAEDNAEFFAITIYGRTKELASELKENFIRFSKSLGLPENHIVFPVPIDQCIDGSAWSHPQFEK
# notes: Not PEGylated; also called O10_S87C; S87C variant
# Key:
# [1] = target: T1, human CTLA-4-Fc (Chimerigen) (human, UniProt P16410 36-161; P01857 99-330 = IgG part, limits assumed); experiment: SPR, Fc fusion captured via anti-human IgG Fc
# T1 construct: extracellular domain;domain: Fc portion; Bought protein; also called hCTLA-4-Fc; huCTLA-4-Ig
# [2] = target: T1, human CTLA-4-Fc (Chimerigen); experiment: SPR; KD listed beside Tm
# [3] = target: T1, human CTLA-4-Fc (Chimerigen); experiment: SPR as in Example 9
# mCTLA-4-Fc (R&D Systems) [4] = target: T2, mCTLA-4-Fc (R&D Systems) (mouse, UniProt P09793 36-162); experiment: SPR, Fc fusion captured via anti-human IgG Fc
# [5] = target: T1, human CTLA-4-Fc (Chimerigen); experiment: SPR-Affinity of the monomer towards hCTLA-4-Fc
# [6] = target: T1, human CTLA-4-Fc (Chimerigen); experiment: Affinity-ELISA of the PEGylated monomer towards hCTLA-4-Fc
# [7] = target: T1, human CTLA-4-Fc (Chimerigen); experiment: SPR-Affinity of the PEGylated monomer towards hCTLA-4-Fc
# mCTLA-4-Fc (R&D Systems) [8] = target: T2, mCTLA-4-Fc (R&D Systems); experiment: SPR; KD listed beside Tm
# mCTLA-4-Fc (R&D Systems) [9] = target: T2, mCTLA-4-Fc (R&D Systems); experiment: SPR as in Example 9
# T1 sequence (P16410 other isoform, or with tags, fused parts or gaps mutant limits assumed): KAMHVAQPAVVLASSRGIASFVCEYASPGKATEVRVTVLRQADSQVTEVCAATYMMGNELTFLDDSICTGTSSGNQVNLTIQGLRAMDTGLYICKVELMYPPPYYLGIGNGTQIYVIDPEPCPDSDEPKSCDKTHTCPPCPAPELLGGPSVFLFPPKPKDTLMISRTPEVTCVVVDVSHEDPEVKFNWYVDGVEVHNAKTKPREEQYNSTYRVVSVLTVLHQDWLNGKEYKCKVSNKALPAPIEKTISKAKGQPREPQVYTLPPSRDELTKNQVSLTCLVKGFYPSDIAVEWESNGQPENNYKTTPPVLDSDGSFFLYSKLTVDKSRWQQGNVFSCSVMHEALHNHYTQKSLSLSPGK
# T2 sequence (P09793 whole entry, the tested form may be a part): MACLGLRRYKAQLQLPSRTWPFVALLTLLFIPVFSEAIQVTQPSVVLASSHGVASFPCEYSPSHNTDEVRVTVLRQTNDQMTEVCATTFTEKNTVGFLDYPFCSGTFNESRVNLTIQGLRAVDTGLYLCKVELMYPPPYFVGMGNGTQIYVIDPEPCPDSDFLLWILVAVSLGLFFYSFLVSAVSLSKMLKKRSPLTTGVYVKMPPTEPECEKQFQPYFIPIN
binder,measurement,setting,value
B1,Kd,[1],12.8 nM
same,koff,[1],0.000116 s⁻¹
same,kon,[1],9240 M⁻¹ s⁻¹
same,Kd,[2],12.8 nM
same,Kd,[3],12.8 nM
same,koff,[3],0.000116 s⁻¹
same,kon,[3],9240 M⁻¹ s⁻¹
B2,Kd,mCTLA-4-Fc (R&D Systems) [4],42 nM
same,Kd,[1],29 nM
B3,Kd,mCTLA-4-Fc (R&D Systems) [4],65 nM
same,Kd,[1],18 nM
B4,Kd,mCTLA-4-Fc (R&D Systems) [4],110 nM
same,Kd,[1],43 nM
B5,Kd,[1],26 nM
B6,Kd,mCTLA-4-Fc (R&D Systems) [4],300 nM
same,Kd,[1],29 nM
B7,Kd,mCTLA-4-Fc (R&D Systems) [4],47 nM
same,Kd,[1],20 nM
B8,Kd,mCTLA-4-Fc (R&D Systems) [4],135 nM
same,Kd,[1],22 nM
B9,Kd,mCTLA-4-Fc (R&D Systems) [4],275 nM
same,Kd,[1],28 nM
B10,Kd,mCTLA-4-Fc (R&D Systems) [4],198 nM
same,koff,mCTLA-4-Fc (R&D Systems) [4],0.00089 s⁻¹
same,kon,mCTLA-4-Fc (R&D Systems) [4],4500 M⁻¹ s⁻¹
same,Kd,[1],47.1 nM
same,koff,[1],0.00033 s⁻¹
same,kon,[1],7030 M⁻¹ s⁻¹
B11,Kd,mCTLA-4-Fc (R&D Systems) [4],19 nM
B12,Kd,mCTLA-4-Fc (R&D Systems) [4],6800 nM
same,koff,mCTLA-4-Fc (R&D Systems) [4],0.098 s⁻¹
same,kon,mCTLA-4-Fc (R&D Systems) [4],14500 M⁻¹ s⁻¹
same,Kd,[1],20 nM
same,koff,[1],0.00033 s⁻¹
same,kon,[1],16000 M⁻¹ s⁻¹
B13,Kd,[5],6 nM
B14,ELISA-Affinity PEGylated Monomer,[6],103 nM
same,Kd,[7],85 nM
B15,Kd,mCTLA-4-Fc (R&D Systems) [8],27.9 nM
same,Kd,[2],7.8 nM
same,Kd,mCTLA-4-Fc (R&D Systems) [9],27.9 nM
same,koff,mCTLA-4-Fc (R&D Systems) [9],0.000379 s⁻¹
same,kon,mCTLA-4-Fc (R&D Systems) [9],14000 M⁻¹ s⁻¹
same,Kd,[3],7.8 nM
same,koff,[3],~9.2e-05 s⁻¹
same,kon,[3],11800 M⁻¹ s⁻¹
B16,Kd,[5],10 nM
B17,Kd,[5],32 nM
B18,ELISA-Affinity PEGylated Monomer,[6],74 nM
same,Kd,[7],50 nM
B19,Kd,[5],15 nM
B20,Kd,[5],15 nM
B21,Kd,[5],9 nM
B22,Kd,[5],24 nM
B23,Kd,[5],13 nM
B24,Kd,mCTLA-4-Fc (R&D Systems) [8],47 nM
same,Kd,[2],20 nM
same,Kd,mCTLA-4-Fc (R&D Systems) [9],47 nM
same,koff,mCTLA-4-Fc (R&D Systems) [9],0.000705 s⁻¹
same,kon,mCTLA-4-Fc (R&D Systems) [9],15000 M⁻¹ s⁻¹
same,Kd,[3],20 nM
same,koff,[3],0.00028 s⁻¹
same,kon,[3],14000 M⁻¹ s⁻¹
B25,ELISA-Affinity PEGylated Monomer,[6],100 nM
same,Kd,[7],50 nM
B26,ELISA-Affinity PEGylated Monomer,[6],100 nM
same,Kd,[7],97 nM
B27,Kd,[5],4 nM
B28,Kd,[5],15 nM
B29,Kd,[5],13 nM
B30,ELISA-Affinity PEGylated Monomer,[6],82 nM
same,Kd,[7],69 nM
B31,Kd,[5],6 nM
